The source of these data is patent publication US20160039933A1 (OXFORD BIOTHERAPEUTICS, published 2016).

For experiment [1], the target named is T1, Cadherin-17 protein (92 kDa) in lysates of colorectal cancer cell lines (human, UniProt Q12864 23-832).
T1 construct: Same natural protein as m15, here denatured on a Western blot (band at 92 kDa); also called CDH17
T1 sequence (looked up): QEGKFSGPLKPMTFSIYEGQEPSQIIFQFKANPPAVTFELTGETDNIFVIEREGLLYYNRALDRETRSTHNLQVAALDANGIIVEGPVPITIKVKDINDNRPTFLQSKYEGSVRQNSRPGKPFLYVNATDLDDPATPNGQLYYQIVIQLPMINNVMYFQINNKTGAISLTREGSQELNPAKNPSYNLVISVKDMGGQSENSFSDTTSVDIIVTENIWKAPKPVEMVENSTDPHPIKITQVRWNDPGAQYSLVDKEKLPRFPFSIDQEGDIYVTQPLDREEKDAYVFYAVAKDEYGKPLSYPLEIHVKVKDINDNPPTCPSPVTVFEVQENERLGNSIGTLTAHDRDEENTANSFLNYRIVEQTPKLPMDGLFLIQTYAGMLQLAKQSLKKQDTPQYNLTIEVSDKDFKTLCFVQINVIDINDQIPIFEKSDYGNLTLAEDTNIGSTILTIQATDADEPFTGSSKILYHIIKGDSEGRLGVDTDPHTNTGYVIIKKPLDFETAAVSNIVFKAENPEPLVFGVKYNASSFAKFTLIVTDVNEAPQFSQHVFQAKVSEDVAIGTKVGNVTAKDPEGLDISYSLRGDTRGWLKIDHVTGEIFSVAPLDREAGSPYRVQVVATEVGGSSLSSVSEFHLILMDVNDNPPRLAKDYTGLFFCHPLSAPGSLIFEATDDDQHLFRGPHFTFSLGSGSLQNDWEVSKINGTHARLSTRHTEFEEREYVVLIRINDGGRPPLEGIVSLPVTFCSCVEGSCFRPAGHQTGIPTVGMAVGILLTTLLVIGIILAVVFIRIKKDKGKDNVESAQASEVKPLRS
Nature of the experiment: Western blot of colorectal cancer cell line lysates, antibody diluted 1:500. On the procedure:
Snap frozen cell pellets were lysed in modified RIPA buffer (50 mM Tris-HCl, pH 7.4, 1% NP-40, 0.25% Na-deoxycholate, 150 mM NaCl, 1 mM EDTA) containing protease inhibitors (Roche) and cleared by spinning down at 18,000 g for 15 min at 4 C. The 4×LDS sample loading buffer (Invitrogen Inc.) was added to the cleared lysate to a final concentration of 1×; sample was heated for 10 min at 70° C. and kept at −80° C. afterwards. Before loading on a gel samples were re-heated.
Membrane was incubated with animal-free blocker (Vector) and probed with anti-Cadherin-17 antibody in animal-free blocker at 1:500 dilution, at 4 C, for 14-18 h, rotating. The secondary was anti-mouse DyLight® 488 conjugate (Pierce).
A clear signal was detected at a size corresponding to the Cadherin-17 protein (92 kDa) in 11 of the 14 chosen colorectal cell lines for all 5 Cadherin-17 antibodies (PTA001_A3, PTA001_A4, PTA001_A6, PTA001_A8 and PTA001_A9). […] Cell lines were carefully selected for different genetic backgrounds relevant to the initiation and progression of CRC (RER+=replication error positive tumor phenotype; RER−=replication error deficient tumor phenotype; p53 wild type or mutant and APC wild type or mutant genotype).

Experiment [2] concerns the target T2, cell-surface human Cadherin-17 (human, UniProt Q12864 23-832).
T2 construct: whole, on cells; Endogenous protein on cells; also called Liver-intestine cadherin; LI-cadherin
T2 sequence (looked up): T1 sequence (looked up)
Nature of the experiment: flow cytometry (FACS) on LoVo cells, antibody titration 0.005-10 ug/ml.

B1: PTA001_A4 monoclonal antibody (Fab, V domains shown)
VH: EVQLQQSVAELVKPGASVKMSCKVSGYTLTDHTIHWMKQRPEQGLEWIGYIYPRDGITGYNEKFKGKATLTADTSSSTAYMQLNSLTSEDSAVYFCARWGYSYRNYAYYYDYWGQGTTLTVSS
VL: DIVMSQSPSSLAVSVGEKVTMSCKSSQSLLHSSNQKNYLAWYQQKPGQSPKVLIYWASTRESGVPDRFTGSGSGTDFTLTITSVKSEDLAVYYCQQYYSYPWTFGGGTRLEIKR
In the case of B1, the binding result in experiment [1] and in experiment [2] was “binds” each time.
